Measured values published in patent US20240002497A1 (Merck Sharp & Dohme, published 2024).
Numbering of substitutions follows the chain as printed. Names may count otherwise. Where two headings read alike, the source gives them in different places. Values belong to the binder of their own block, whether it stands above or below them.

Experiments:
[1] = target: T1, huNav1.8α (human, UniProt Q9Y5Y9 1-1956); test: binding FACS on stable huNav1.x paralog HEK293T cell lines
T1 construct: also called huNav1.8 (alpha subunit)

[2] = target: T2, huNav1.4α (human, UniProt P35499 1-1836); test: as above
T2 construct: also called huNav1.4 (alpha subunit)

[3] = target: T3, huNav1.6α (human, UniProt Q9UQD0 1-1980); test: as above
T3 construct: also called huNav1.6 (alpha subunit)

[4] = target: huNav1.1α (human, UniProt P35498 1-2009); test: as above
[5] = target: T4, huNav1.5α (human, UniProt Q14524 1-2016); test: as above
T4 construct: also called huNav1.5 (alpha subunit)

[6] = target: T5, huNav1.2α (human, UniProt Q99250 1-2005); test: as above
T5 construct: also called huNav1.2 (alpha subunit)

[7] = target: T6, huNav1.3α (human, UniProt Q9NY46 1-2000); test: as above
T6 construct: also called huNav1.3 (alpha subunit)

[8] = target: T7, huNav1.7α+β1 (human, UniProt Q15858 1-1988; Q07699 19-218); test: binding FACS, HEKa/β1 cells
T7 construct: also called huNav1.7-beta1; HEKa/β1

[9] = target: T8, huNav1.7α (human, UniProt Q15858 1-1988); test: binding FACS, HEKa cells
T8 construct: HEK cells expressing the α subunit alone; also called HEKa; HEK huNav1.7α

[10] = target: T9, huNav157chimera14+β1-β2-β3 (human, UniProt Q07699 19-218; O60939 30-215; Q9NY72 23-215); test: binding FACS, HEK FlpIn cells
T9 construct: HEK FlpIn line; also called huNav157 chimera 14-beta1-beta2-beta3; Nav157ch14-β1-β2-β3
Protocol: (§1) Binding of the ISVDs to cell-expressed Nav1.7α was detected via murine anti-Flag (Sigma, catalog #F1804). Briefly, cells were resuspended in FACS buffer (PBS, 10% FBS, NaN₃) and transferred to a 96-well V-bottom plate at 1×10^5 cells/well. Purified FLAG3-tagged ISVD was diluted in FACS buffer and added to the cells for 30 minutes at 4° C. […] Prior to the read-out, the samples were resuspended in 1 μg/mL propidium iodide (Sigma, catalog #P4170) to exclude dead cells. Between each step, the cells were centrifuged for 5 minutes at 200 grams and washed with 100 μL/well FACS buffer.
(§2) Crude periplasmic extracts containing ISVDs from phage display selections (as described above) were screened in FACS for binding to huNav1.7α but not to huNav1.5a. […] As used in Table 8, the drawings, and throughout the description, Navβ1, Navβ2, and Navβ3 are human homologs unless specifically identified otherwise.

[11] = target: T10, huNav1.7α+β1-β2-β3 (human, UniProt Q15858 1-1988; Q07699 19-218; O60939 30-215; Q9NY72 23-215); test: binding FACS, HEK FlpIn cells
T10 construct: 5N11S variant; also called huNav1.7-beta1-beta2-beta3; huNav1.7α+Navβ1-Navβ2-Navβ3
Protocol: as §1, §2

[12] = target: T11, huNav1.5α+β1-β2-β3 (human, UniProt Q14524 1-2016; A5A6L6 19-218; O60939 30-215; Q2KI11 23-215); test: binding FACS, HEK FlpIn cells
T11 construct: in the cell P2A cleaves it into α, β1, β2, β3; also called huNav1.5-beta1-beta2-beta3
Protocol: as §1, §2

[13] = target: T10, huNav1.7α+β1-β2-β3; test: binding FACS, CHO FlpIn cells
Protocol: as §1, §2

[14] = target: T7, huNav1.7α+β1; test: binding FACS, HEK293 cells
Protocol: as §1, §2

[15] = target: T12, huNav1.7α (human, UniProt Q15858 1-1988); test: binding FACS, HEK
T12 construct: HEK cells expressing the α subunit without β subunits; also called huNav1.7 (alpha-subunit); Human Nav1.7α

[16] = target: T13, huNav1.7α + β1 (human); test: binding FACS, HEK
T13 construct: HEK293 cells; also called huNav1.7-beta1; huNav1.7-β1

[17] = target: rhNav1.7α + β1-β2-β3 (rhesus monkey); test: cell-based or functional assay
[18] = target: T13, huNav1.7α + β1; test: cell-based or functional assay
[19] = target: rhNav1.7α + β1-β2-β3 (rhesus monkey); test: cell-based or functional assay; remark: listed apart in the source
[20] = target: T13, huNav1.7α + β1; test: cell-based or functional assay; remark: listed apart in the source
[21] = target: T13, huNav1.7α + β1; test: cell-based or functional assay; remark: listed apart in the source
[22] = target: T14, huNav1.7α + β1-β2-β3 (human, UniProt Q15858 1-1988; A5A6L6 19-218; O60939 30-215; Q2KI11 23-215); test: competition FACS vs EC25 of F103275B05(N93R), HEK FlpIn
T14 construct: also called huNav1.7-beta1-beta2-beta3; huNav1.7-β1-β2-β3

[23] = target: T12, huNav1.7α; test: competition FACS vs EC25 of F103275B05(N93R), HEK
[24] = target: T13, huNav1.7α + β1; test: competition FACS vs EC25 of F103275B05(N93R), HEK
[25] = target: T14, huNav1.7α + β1-β2-β3; test: competition FACS vs EC25 of F103275B05(N93R), CHO FlpIn
[26] = target: T15, rhNav1.7α + β1-β2-β3 (rhesus monkey); test: competition FACS vs EC40 of F103275B05(N93R), CHO FlpIn
T15 construct: also called rhNav1.7-beta1-beta2-beta3; rhNav1.7-β1-β2-β3

[27] = target: T15, rhNav1.7α + β1-β2-β3; test: cell-based or functional assay; remark: listed apart in the source
[28] = target: T14, huNav1.7α + β1-β2-β3; test: cell-based or functional assay
[29] = target: Rhesus Nav1.7α (rhesus, UniProt Q15858 1-1988 (human entry)); test: cell-based or functional assay
[30] = target: T12, huNav1.7α; test: cell-based or functional assay
[31] = target: T10, huNav1.7α+β1-β2-β3; test: binding FACS, CHO FlpIn cells; remark: listed apart in the source
In short: (§3)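 Assessment used purified FLAG3-tagged ISVD incubated on cells for 30 minutes at 4° C in PBS containing 10% FBS and NaN₃, with cells washed between steps. Propidium iodide (1 μg/mL) staining removed dead cells from analysis.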

[32] = target: T8, huNav1.7α; test: binding FACS, HEKa cells; remark: listed apart in the source
In short: as §3

[33] = target: T16, rhNav1.7α+β1-β2-β3 (rhesus monkey α subunit with human β …); test: binding FACS, CHO FlpIn cells
T16 construct: P2A cleaves it into α, β1, β2, β3; also called rhNav1.7-beta1-beta2-beta3
Protocol: as §1, §2

[34] = target: T7, huNav1.7α+β1; test: binding FACS, HEKa/β1 cells; remark: listed apart in the source
In short: as §3

T6 sequence (Q9NY46 whole entry): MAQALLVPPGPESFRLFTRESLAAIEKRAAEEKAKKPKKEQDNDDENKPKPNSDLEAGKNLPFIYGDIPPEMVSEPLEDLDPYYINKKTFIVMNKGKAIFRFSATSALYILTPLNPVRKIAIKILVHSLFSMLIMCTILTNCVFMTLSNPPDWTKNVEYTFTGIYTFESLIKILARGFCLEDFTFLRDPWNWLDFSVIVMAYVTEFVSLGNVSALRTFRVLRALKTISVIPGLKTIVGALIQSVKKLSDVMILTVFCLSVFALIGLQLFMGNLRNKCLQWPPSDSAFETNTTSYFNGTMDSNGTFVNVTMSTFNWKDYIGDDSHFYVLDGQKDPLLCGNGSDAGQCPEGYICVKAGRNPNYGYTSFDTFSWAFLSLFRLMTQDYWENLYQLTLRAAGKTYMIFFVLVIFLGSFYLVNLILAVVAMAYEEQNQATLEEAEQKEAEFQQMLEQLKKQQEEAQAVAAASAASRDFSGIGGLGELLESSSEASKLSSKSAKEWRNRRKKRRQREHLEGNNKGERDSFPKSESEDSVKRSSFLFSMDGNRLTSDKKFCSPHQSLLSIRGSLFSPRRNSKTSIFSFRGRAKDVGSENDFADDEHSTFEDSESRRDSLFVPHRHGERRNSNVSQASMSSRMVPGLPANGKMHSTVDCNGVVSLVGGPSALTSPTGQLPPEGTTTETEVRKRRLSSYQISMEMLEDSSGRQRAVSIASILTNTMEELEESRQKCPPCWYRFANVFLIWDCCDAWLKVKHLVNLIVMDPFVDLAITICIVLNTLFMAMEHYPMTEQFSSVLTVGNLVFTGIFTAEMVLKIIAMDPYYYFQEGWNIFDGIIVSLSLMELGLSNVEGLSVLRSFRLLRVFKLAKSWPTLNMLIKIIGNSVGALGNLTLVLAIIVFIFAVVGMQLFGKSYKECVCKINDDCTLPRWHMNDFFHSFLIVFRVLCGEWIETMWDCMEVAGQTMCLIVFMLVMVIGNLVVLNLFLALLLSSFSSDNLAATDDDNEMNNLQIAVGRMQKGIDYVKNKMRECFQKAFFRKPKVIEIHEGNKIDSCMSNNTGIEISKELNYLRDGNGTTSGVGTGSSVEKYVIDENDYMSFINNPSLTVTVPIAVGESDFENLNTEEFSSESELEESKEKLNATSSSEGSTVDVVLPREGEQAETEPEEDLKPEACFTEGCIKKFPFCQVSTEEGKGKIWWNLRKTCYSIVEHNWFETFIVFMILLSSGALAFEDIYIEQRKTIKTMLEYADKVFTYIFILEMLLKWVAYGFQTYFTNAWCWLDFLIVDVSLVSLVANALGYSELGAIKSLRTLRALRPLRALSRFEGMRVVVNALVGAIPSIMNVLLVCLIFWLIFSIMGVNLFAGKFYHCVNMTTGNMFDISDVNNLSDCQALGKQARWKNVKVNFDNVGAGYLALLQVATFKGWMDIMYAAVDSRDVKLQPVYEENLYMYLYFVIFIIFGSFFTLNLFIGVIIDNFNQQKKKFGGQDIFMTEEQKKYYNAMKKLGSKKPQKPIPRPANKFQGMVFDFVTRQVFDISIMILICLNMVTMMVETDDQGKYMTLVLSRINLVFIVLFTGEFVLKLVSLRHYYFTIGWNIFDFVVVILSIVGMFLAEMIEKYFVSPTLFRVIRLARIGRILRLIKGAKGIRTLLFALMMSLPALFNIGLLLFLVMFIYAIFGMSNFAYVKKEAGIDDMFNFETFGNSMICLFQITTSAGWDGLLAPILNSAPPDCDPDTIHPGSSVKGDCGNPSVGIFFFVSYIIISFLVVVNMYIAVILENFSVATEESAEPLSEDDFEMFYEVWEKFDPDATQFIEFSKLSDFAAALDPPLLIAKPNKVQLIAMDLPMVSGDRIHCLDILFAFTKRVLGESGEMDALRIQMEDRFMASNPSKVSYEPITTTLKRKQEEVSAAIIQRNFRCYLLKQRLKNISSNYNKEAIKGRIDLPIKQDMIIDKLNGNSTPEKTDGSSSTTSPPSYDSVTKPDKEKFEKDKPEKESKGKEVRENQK
T2 sequence (P35499 whole entry): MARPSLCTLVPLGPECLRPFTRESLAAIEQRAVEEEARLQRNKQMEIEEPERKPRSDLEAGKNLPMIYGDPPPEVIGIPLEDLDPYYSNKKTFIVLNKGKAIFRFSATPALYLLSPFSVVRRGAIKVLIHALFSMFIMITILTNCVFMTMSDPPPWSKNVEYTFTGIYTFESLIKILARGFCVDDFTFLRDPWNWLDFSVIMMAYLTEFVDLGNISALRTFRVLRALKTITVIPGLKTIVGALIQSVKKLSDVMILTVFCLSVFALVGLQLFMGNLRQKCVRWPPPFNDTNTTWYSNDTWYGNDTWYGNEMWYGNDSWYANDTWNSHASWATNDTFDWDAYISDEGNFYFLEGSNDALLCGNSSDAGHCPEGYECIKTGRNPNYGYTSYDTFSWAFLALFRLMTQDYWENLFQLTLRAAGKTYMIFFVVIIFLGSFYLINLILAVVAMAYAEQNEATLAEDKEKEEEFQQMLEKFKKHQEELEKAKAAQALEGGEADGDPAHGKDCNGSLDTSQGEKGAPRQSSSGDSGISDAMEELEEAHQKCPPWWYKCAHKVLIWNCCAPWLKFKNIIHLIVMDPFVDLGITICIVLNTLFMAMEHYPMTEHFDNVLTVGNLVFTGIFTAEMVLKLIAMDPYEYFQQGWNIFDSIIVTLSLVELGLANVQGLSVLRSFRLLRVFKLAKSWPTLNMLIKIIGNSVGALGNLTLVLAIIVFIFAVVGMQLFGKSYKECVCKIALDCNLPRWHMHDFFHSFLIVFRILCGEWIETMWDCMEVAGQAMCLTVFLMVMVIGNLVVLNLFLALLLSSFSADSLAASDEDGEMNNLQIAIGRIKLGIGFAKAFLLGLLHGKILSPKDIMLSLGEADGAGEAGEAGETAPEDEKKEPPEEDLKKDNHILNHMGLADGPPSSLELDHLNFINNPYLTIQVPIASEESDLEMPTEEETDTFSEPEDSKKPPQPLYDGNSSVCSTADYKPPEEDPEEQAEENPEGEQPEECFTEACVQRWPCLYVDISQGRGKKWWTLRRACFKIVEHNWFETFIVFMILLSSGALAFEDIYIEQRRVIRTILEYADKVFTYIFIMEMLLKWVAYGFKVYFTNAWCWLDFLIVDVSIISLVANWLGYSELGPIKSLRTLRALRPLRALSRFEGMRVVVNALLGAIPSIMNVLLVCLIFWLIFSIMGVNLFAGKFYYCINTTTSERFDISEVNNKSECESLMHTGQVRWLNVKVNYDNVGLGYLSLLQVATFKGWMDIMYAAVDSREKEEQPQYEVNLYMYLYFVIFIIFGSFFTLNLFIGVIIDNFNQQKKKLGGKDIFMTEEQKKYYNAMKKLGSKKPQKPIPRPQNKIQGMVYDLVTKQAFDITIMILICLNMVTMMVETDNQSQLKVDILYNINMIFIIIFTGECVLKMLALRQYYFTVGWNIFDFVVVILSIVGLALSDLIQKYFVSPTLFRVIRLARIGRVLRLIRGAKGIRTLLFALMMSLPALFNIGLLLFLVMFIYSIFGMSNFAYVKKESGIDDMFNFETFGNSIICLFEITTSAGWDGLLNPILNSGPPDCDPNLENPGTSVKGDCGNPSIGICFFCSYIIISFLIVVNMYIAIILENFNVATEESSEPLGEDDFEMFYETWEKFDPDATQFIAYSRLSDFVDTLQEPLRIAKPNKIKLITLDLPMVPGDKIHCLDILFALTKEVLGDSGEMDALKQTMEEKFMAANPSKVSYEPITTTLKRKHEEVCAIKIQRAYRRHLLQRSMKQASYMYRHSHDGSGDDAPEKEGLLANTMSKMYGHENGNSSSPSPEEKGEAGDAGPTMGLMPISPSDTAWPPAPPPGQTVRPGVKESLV

B2: 66ASP (Fc fusion)
chain: EVQLVESGGGLVQPGGSLRLSCAASGPVFNINSMAWYRRAPGKQRELVAYSTPGWDWNYADSVKGRFTISRDNAKRVYLQMNSLTPEDTAVYYCRWLLQPSIYDISRTYWGQGTLVTVSS
notes: also called F010300659-5GS-Fc; not shown: 5GS linker; Fc moiety
EC50 [15]: 61 nM
EC50 [16]: 42 nM
Qpatch IC50 [M], HEK cells [17]: 5.2e-08 M
Qpatch IC50 [M], HEK cells [18]: 9.2e-08 M

B4: F0103362B08 (parental)-FLAG-HIS6 (VHH)
VHH: EVQLVESGGGLVQAGGSLRLSCAASVRPFSTSAMGWFRQAPEKEREAVAGILWNGIVTYYADSVKGRFTISRDNAKNEVYLQMNKLKPEDTAVYYCALDRDYGGRSFSAYEYEYWGQGTLVTVSS
Qpatch IC50 [21]: 1 nM

B5: F0103454D07 (parental)-FLAG-HIS6 (VHH)
VHH: EVQLVESGGGLVQPGGSLRLSCVASGGIININYIAWYRQTPGKQRDLVARISSDDTIKYGDSVKGRFAMSRDKVKNMVHLQMNSLTTEDTGVYVCSALITPWTGDTRTYWGRGTLVTVSS
Qpatch IC50 [21]: 38 nM

B8: F0103387G05 (parental)-FLAG-HIS6 (VHH)
VHH: EVQLVESGGGLVQAGGSLRLSCDASGRILRIGYMRWHRQGAGKQREFVARITDDSATDYADSVKGRFTISRDNAKNTVYLQMNNLNPEDTAVYYCEALVTASVRGGSIHSGTYWGRGTLVTVSS
EC50 [31]: 4.7 nM
binding result [1]: no binding
binding result [2]: no binding
binding result [3]: no binding
binding result [4]: no binding
binding result [5]: no binding
binding result [6]: no binding
binding result [7]: no binding
EC50 [10]: 3.6 nM
EC50 [11]: 3.1 nM
binding result [12]: no binding
EC50 [32]: 2.7 nM
binding result [33]: no binding
EC50 [14]: 1.2 nM
EC50 [34]: 1.7 nM

Now from value to binder, other results behind:

binding result [1]: no binding
binding result [2]: no binding
binding result [3]: no binding
binding result [4]: no binding
binding result [6]: no binding
binding result [7]: no binding
EC50 [8]: 48 nM
EC50 [9]: 10 nM
EC50 [10]: 39 nM
EC50 [11]: 37 nM
EC50 [13]: 27 nM
EC50 [14]: 28 nM
B1: F0103275B05 (parental)-FLAG-HIS6 (VHH)
VHH: B2 chain with P27S, V28I, Y50S, P53N, W55G, D56S, W57T, R95N, W96A
notes: also called F01033275B05
binding result [5]: no binding
binding result [12]: no binding

EC50 [15]: 5.4 nM
EC50 [16]: 11 nM
Qpatch IC50 [19]: 199 nM
Qpatch IC50 [20]: 85 nM
Qpatch IC50 [M], HEK cells [17]: 1.8e-07 M
Qpatch IC50 [M], HEK cells [18]: 8.5e-08 M
B3: F010300659 (VHH)
VHH: B2 chain
notes: also called F0103275B05(S27P, I28V, S50Y, N53P, G55W, S56D, T57W, N93R, A94W)-FLAG3 + HIS6

IC50 [22]: 10 nM
IC50 [23]: 110 nM
IC50 [24]: 4.3 nM
IC50 [25]: 12 nM
IC50 [26]: 6.5 nM
Qpatch IC50 [27]: 2.8 nM
Qpatch IC50 [28]: 2.6 nM
Qpatch IC50 [29]: 93 nM
Qpatch IC50 [30]: 123 nM
B6: F010302375 (bispecific antibody)
chain: DVQLVESGGGLVQPGGSLRLSCAASGSIFNINSMAWYRRAPGKQRELVASSTNGGSTNYADSVKGRFTISRDNAKRVYLQMNSLTPEDTAVYYCRALLQPSIYDISRTYWGQGTLVTVSSGGGGSGGGGSGGGGSGGGGSGGGGSGGGGSGGGGSGGGGSGGGGSGGGGSEVQLVESGGGLVQAGGSLRLSCAASGRAFSTLAMGWFRQAPGKEREFVAAISRNGNNSATGDSLKGRFTISRDSTKSTVFLQMNTLKPEDTAVYYCAAISTPSASHPYVRKESYRYWGQGTQVTVSSGAADYKDHDGDYKDHDIDYKDDDDKGAAHHHHHH
notes: also called F0103275B05(E1D, N93R)-50GS-F0103478E09(L108Q)-FLAG3-HIS6

IC50 [22]: 12 nM
IC50 [23]: 80 nM
IC50 [24]: 5.2 nM
IC50 [25]: 10 nM
IC50 [26]: 6.6 nM
Qpatch IC50 [27]: 2.6 nM
Qpatch IC50 [28]: 2.3 nM
Qpatch IC50 [29]: 103 nM
Qpatch IC50 [30]: 115 nM
B7: F010302378 (bispecific antibody)
chain: DVQLVESGGGLVQPGGSLRLSCAASGSIFNINSMAWYRRAPGKQRELVASSTNGGSTNYADSVKGRFTISRDNAKRVYLQMNSLTPEDTAVYYCRALLQPSIYDISRTYWGQGTLVTVSSGGGGSGGGGSGGGGSGGGGSGGGGSGGGGSGGGGSGGGGSGGGGSGGGGSEVQLVESGGGLVQAGSSLSLSCAASGRALSTYAMGWFRQAPGKEREFVARISRSGITTYYTDSVKGRFTISRDRAKDTVYLQMNSLKPEDTAIYLCAADASTNPAGYYLRNRYDYWGQGTLVTVSSGAADYKDHDGDYKDHDIDYKDDDDKGAAHHHHHH
notes: also called F0103275B05(E1D, N93R)-50GS-F0103495F09-FLAG3-HIS6
